Measured values reported in patent publication US20030044789A1, “Identification and quantification of a protein carrying an N-terminal polyhistidine affinity tag” (priority 2000, published 2003).

System: Penta-His antibody
Assay: Competition study with HisTagged proteins (HisTag FPIA)
Type: binding
Conditions: 1-2 nM fluor-AHHHHHHG, 10 nM Penta-His antibody, approx. 60 min at room temperature; read-out: approximate IC50 (concentration of competitor required to decrease FP signal by 50%)
Description: Purified N-terminal HisTagged proteins were serially diluted into PBS +0.01% NP-40 in a multiwell plates. 1-2 nM fluorescein labeled peptide (fluor-AHHHHHHG) and 10 nM of Penta-His antibody were then added to each reaction to a final volume of 50-100 ul. After approximately 60 min incubation at room temperature to insure equilibrium binding, the polarization was measured on a Tecan Polarian multiwell instrument.
Protein Kinase A (PKA) is a serine/threonine kinase, ZAP-70 is a tyrosine kinase, and the Estrogen Receptor Ligand Binding Domain (ER-LBD) is comprised of the C-terminal 300 amino acids of ERα; all three proteins were highly purified and active.

B1: ZAP-70: recombinant human tyrosine kinase with N-terminal six-histidine fusion (protein, UniProt P43403 1-619, looked up)
Tyrosine-protein kinase ZAP-70: MPDPAAHLPFFYGSISRAEAEEHLKLAGMADGLFLLRQCLRSLGGYVLSLVHDVRFHHFPIERQLNGTYAIAGGKAHCGPAELCEFYSRDPDGLPCNLRKPCNRPSGLEPQPGVFDCLRDAMVRDYVRQTWKLEGEALEQAIISQAPQVEKLIATTAHERMPWYHSSLTREEAERKLYSGAQTDGKFLLRPRKEQGTYALSLIYGKTVYHYLISQDKAGKYCIPEGTKFDTLWQLVEYLKLKADGLIYCLKEACPNSSASNASGAAAPTLPAHPSTLTHPQRRIDTLNSDGYTPEPARITSPDKPRPMPMDTSVYESPYSDPEELKDKKLFLKRDNLLIADIELGCGNFGSVRQGVYRMRKKQIDVAIKVLKQGTEKADTEEMMREAQIMHQLDNPYIVRLIGVCQAEALMLVMEMAGGGPLHKFLVGKREEIPVSNVAELLHQVSMGMKYLEEKNFVHRDLAARNVLLVNRHYAKISDFGLSKALGADDSYYTARSAGKWPLKWYAPECINFRKFSSRSDVWSYGVTMWEALSYGQKPYKKMKGPEVMAFIEQGKRMECPPECPPELYALMSDCWIYKWEDRPDFLTVEQRMRACYYSLASKVEGPPGSTQKAEAACA
modifications: N-terminal polyhistidine tag
IC50: ~36 nM
